Literature values, collected in US20070141059A1, “Use of cathepsin s inhibitors for treating an immune response caused by administration of a small molecule therapeutic or biologic” (AXYS Pharmaceuticals, Inc., priority 2003, published 2007).

Legend:
[1] = patients taking heparin

OKT3: murine monoclonal antibody directed towards CD-3 domain of activated T-cells
patients producing antibodies versus the therapy (in clinical trials): 20-40%

Remicade®: biologic; biological agent that induces the production of specific immunoglobulins
patients generating neutralizing antibodies (patients taking the biologic): 10%

heparin
patients experiencing heparin induced thrombocytopenia (HIT) [1]: ~3%

B1: Betaseron®: biologic; biological agent that induces the production of specific immunoglobulins (protein, UniProt P01574 22-187, looked up, variant C17S)
Interferon beta: MSYNLLGFLQRSSNFQSQKLLWQLNGRLEYCLKDRMNFDIPEEIKQLQQFQKEDAALTIYEMLQNIFAIFRQDSSSTGWNETIVENLLANVYHQINHLKTVLEEKLEKEDFTRGKLMSSLHLKRYYGRILHYLKAKEYSHCAWTIVRVEILRNFYFINRLTGYLRN
modifications: non-glycosylated, E. coli-expressed
notes: biologic; biological agent that induces the production of specific immunoglobulins
patients found to have serum-neutralizing activity (patients taking the biologic): 45%
